Source: publication PMC3961330

What was measured:
[1] = test system: PPARalpha (rat liver nuclear extract);RXRalpha (rat liver nuclear extract) (rat;rat); assay: EMSA; conditions: OEA-treated rats; 10 mM HEPES pH 7.9, 150 mM KCl, 1 mM DTT, 0.2 ug/uL poly(dI-C), 5% glycerol; 15 min on ice then 15 min with probe at room temperature; 8% native PAGE, 0.5x TBE
[2] = test system: PPARalpha (rat liver nuclear extract);RXRalpha (rat liver nuclear extract) (rat;rat); assay: EMSA with anti-PPARalpha supershift; conditions: OEA-treated rats; anti-PPARalpha antibody; 10 mM HEPES pH 7.9, 150 mM KCl, 1 mM DTT, 0.2 ug/uL poly(dI-C), 5% glycerol; 15 min on ice then 15 min with probe at room temperature; 8% native PAGE, 0.5x TBE

ACOX-PPRE
binding signal (fold vs vehicle) [1]: 2
binding signal (fold vs vehicle (supershifted complex)) [2]: > 3
